Legend:
[1] = molecular target: hRPA70A (DNA-binding domain A of RPA70) (human, UniProt P27694 181-290); test: NMR chemical shift perturbation
[2] = molecular target: scRPA70A (DNA-binding domain A of RPA70) (Saccharomyces cerevisiae, UniProt P22336 181-294); test: NMR chemical shift perturbation
scRPA70A (DNA-binding domain A of RPA70), sequence (P22336 181-294): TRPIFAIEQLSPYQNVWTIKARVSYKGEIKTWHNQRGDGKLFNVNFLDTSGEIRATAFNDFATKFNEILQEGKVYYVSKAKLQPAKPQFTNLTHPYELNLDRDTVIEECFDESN

hRPA70A (DNA-binding domain A of RPA70), sequence (P27694 181-290): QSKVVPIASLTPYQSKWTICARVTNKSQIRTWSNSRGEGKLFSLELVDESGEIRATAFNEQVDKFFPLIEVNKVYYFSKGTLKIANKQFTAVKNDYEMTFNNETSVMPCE

GCGATTGCG (ssDNA) [TT-10]: binds [1]; binds [2].
